B1: T1135stop (C-terminal deletion variant of ADAMTS-13, FLAG appended) (protein)
chain: PSHFQQSCLQALEPQAVSSYLSPGAPLKGRPPSPGFQRQRQRQRRAAGGILHLELLVAVGPDVFQAHQEDTERYVLTNLNIGAELLRDPSLGAQFRVHLVKMVILTEPEGAPNITANLTSSLLSVCGWSQTINPEDDTDPGHADLVLYITRFDLELPDGNRQVRGVTQLGGACSPTWSCLITEDTGFDLGVTIAHEIGHSFGLEHDGAPGSGCGPSGHVMASDGAAPRAGLAWSPCSRRQLLSLLSAGRARCVWDPPRPQPGSAGHPPDAQPGLYYSANEQCRVAFGPKAVACTFAREHLDMCQALSCHTDPLDQSSCSRLLVPLLDGTECGVEKWCSKGRCRSLVELTPIAAVHGRWSSWGPRSPCSRSCGGGVVTRRRQCNNPRPAFGGRACVGADLQAEMCNTQACEKTQLEFMSQQCARTDGQPLRSSPGGASFYHWGAAVPHSQGDALCRHMCRAIGESFIMKRGDSFLDGTRCMPSGPREDGTLSLCVSGSCRTFGCDGRMDSQQVWDRCQVCGGDNSTCSPRKGSFTAGRAREYVTFLTVTPNLTSVYIANHRPLFTHLAVRIGGRYVVAGKMSISPNTTYPSLLEDGRVEYRVALTEDRLPRLEEIRIWGPLQEDADIQVYRRYGEEYGNLTRPDITFTYFQPKPRQAWVWAAVRGPCSVSCGAGLRWVNYSCLDQARKELVETVQCQGSQQPPAWPEACVLEPCPPYWAVGDFGPCSASCGGGLRERPVRCVEAQGSLLKTLPPARCRAGAQQPAVALETCNPQPCPARWEVSEPSSCTSAGGAGLALENETCVPGADGLEAPVTEGPGSVDEKLPAPEPCVGMSCPPGWGHLDATSAGEKAPSPWGSIRTGAQAAHVWTPAAGSCSVSCGRGLMELRFLCMDSALRVPVQEELCGLASKPGSRREVCQAVPCPARWQYKLAACSVSCGRGVVRRILYCARAHGEDDGEEILLDTQCQGLPRPEPQEACSLEPCPPRWKVMSLGPCSASCGLGTARRSVACVQLDQGQDVEVDEAACAALVRPEASVPCLIADCTYRWHVGTWMECSVSCGDGIQRRRDTCLGPQAQAPVPADFCQHLPKPVTVRGCWAGPCVGQGTDYKDDDDK
B2: Full 1427stop (FLAG tagged ADAMTS-13 wild type) (protein)
chain: PSHFQQSCLQALEPQAVSSYLSPGAPLKGRPPSPGFQRQRQRQRRAAGGILHLELLVAVGPDVFQAHQEDTERYVLTNLNIGAELLRDPSLGAQFRVHLVKMVILTEPEGAPNITANLTSSLLSVCGWSQTINPEDDTDPGHADLVLYITRFDLELPDGNRQVRGVTQLGGACSPTWSCLITEDTGFDLGVTIAHEIGHSFGLEHDGAPGSGCGPSGHVMASDGAAPRAGLAWSPCSRRQLLSLLSAGRARCVWDPPRPQPGSAGHPPDAQPGLYYSANEQCRVAFGPKAVACTFAREHLDMCQALSCHTDPLDQSSCSRLLVPLLDGTECGVEKWCSKGRCRSLVELTPIAAVHGRWSSWGPRSPCSRSCGGGVVTRRRQCNNPRPAFGGRACVGADLQAEMCNTQACEKTQLEFMSQQCARTDGQPLRSSPGGASFYHWGAAVPHSQGDALCRHMCRAIGESFIMKRGDSFLDGTRCMPSGPREDGTLSLCVSGSCRTFGCDGRMDSQQVWDRCQVCGGDNSTCSPRKGSFTAGRAREYVTFLTVTPNLTSVYIANHRPLFTHLAVRIGGRYVVAGKMSISPNTTYPSLLEDGRVEYRVALTEDRLPRLEEIRIWGPLQEDADIQVYRRYGEEYGNLTRPDITFTYFQPKPRQAWVWAAVRGPCSVSCGAGLRWVNYSCLDQARKELVETVQCQGSQQPPAWPEACVLEPCPPYWAVGDFGPCSASCGGGLRERPVRCVEAQGSLLKTLPPARCRAGAQQPAVALETCNPQPCPARWEVSEPSSCTSAGGAGLALENETCVPGADGLEAPVTEGPGSVDEKLPAPEPCVGMSCPPGWGHLDATSAGEKAPSPWGSIRTGAQAAHVWTPAAGSCSVSCGRGLMELRFLCMDSALRVPVQEELCGLASKPGSRREVCQAVPCPARWQYKLAACSVSCGRGVVRRILYCARAHGEDDGEEILLDTQCQGLPRPEPQEACSLEPCPPRWKVMSLGPCSASCGLGTARRSVACVQLDQGQDVEVDEAACAALVRPEASVPCLIADCTYRWHVGTWMECSVSCGDGIQRRRDTCLGPQAQAPVPADFCQHLPKPVTVRGCWAGPCVGQGTPSLVPHEEAAAPGRTTATPAGASLEWSQARGLLFSPAPQPRRLLPGPQENSVQSSACGRQHLEPTGTIDMRGPGQADCAVAIGRPLGEVVTLRVLESSLNCSAGDMLLLWGRLTWRKMCRKLLDMTFSSKTNTLVVRQRCGRPGGGVLLRYGSQLAPETFYRECDMQLFGPWGEIVSPSLSPATSNAGGCRLFINVAPHARIAIHALATNMGAGTEGANASYILIRDTHSLRTTAFHGQQVLYWESESSQAEMEFSEGFLKAQASLRGQYWTLQSWVPEMQDPQSWKGKEGTDYKDDDDK
B3: recombinant ADAMTS-13 (von Willebrand factor specific cleaving enzyme), expressed in human embryo kidney cell line 293 (protein)
chain: AAGGILHLELLVAVGPDVFQAHQEDTERYVLTNLNIGAELLRDPSLGAQFRVHLVKMVILTEPEGAPNITANLTSSLLSVCGWSQTINPEDDTDPGHADLVLYITRFDLELPDGNRQVRGVTQLGGACSPTWSCLITEDTGFDLGVTIAHEIGHSFGLEHDGAPGSGCGPSGHVMASDGAAPRAGLAWSPCSRRQLLSLLSAGRARCVWDPPRPQPGSAGHPPDAQPGLYYSANEQCRVAFGPKAVACTFAREHLDMCQALSCHTDPLDQSSCSRLLVPLLDGTECGVEKWCSKGRCRSLVELTPIAAVHGRWSSWGPRSPCSRSCGGGVVTRRRQCNNPRPAFGGRACVGADLQAEMCNTQACEKTQLEFMSQQCARTDGQPLRSSPGGASFYHWGAAVPHSQGDALCRHMCRAIGESFIMKRGDSFLDGTRCMPSGPREDGTLSLCVSGSCRTFGCDGRMDSQQVWDRCQVCGGDNSTCSPRKGSFTAGRAREYVTFLTVTPNLTSVYIANHRPLFTHLAVRIGGRYVVAGKMSISPNTTYPSLLEDGRVEYRVALTEDRLPRLEEIRIWGPLQEDADIQVYRRYGEEYGNLTRPDITFTYFQPKPRQAWVWAAVRGPCSVSCGAGLRWVNYSCLDQARKELVETVQCQGSQQPPAWPEACVLEPCPPYWAVGDFGPCSASCGGGLRERPVRCVEAQGSLLKTLPPARCRAGAQQPAVALETCNPQPCPARWEVSEPSSCTSAGGAGLALENETCVPGADGLEAPVTEGPGSVDEKLPAPEPCVGMSCPPGWGHLDATSAGEKAPSPWGSIRTGAQAAHVWTPAAGSCSVSCGRGLMELRFLCMDSALRVPVQEELCGLASKPGSRREVCQAVPCPARWQYKLAACSVSCGRGVVRRILYCARAHGEDDGEEILLDTQCQGLPRPEPQEACSLEPCPPRWKVMSLGPCSASCGLGTARRSVACVQLDQGQDVEVDEAACAALVRPEASVPCLIADCTYRWHVGTWMECSVSCGDGIQRRRDTCLGPQAQAPVPADFCQHLPKPVTVRGCWAGPCVGQGTPSLVPHEEAAAPGRTTATPAGASLEWSQARGLLFSPAPQPRRLLPGPQENSVQSSACGRQHLEPTGTIDMRGPGQADCAVAIGRPLGEVVTLRVLESSLNCSAGDMLLLWGRLTWRKMCRKLLDMTFSSKTNTLVVRQRCGRPGGGVLLRYGSQLAPETFYRECDMQLFGPWGEIVSPSLSPATSNAGGCRLFINVAPHARIAIHALATNMGAGTEGANASYILIRDTHSLRTTAFHGQQVLYWESESSQAEMEFSEGFLKAQASLRGQYWTLQSWVPEMQDPQSWKGKEGT
B4: W688stop (C-terminal deletion variant of ADAMTS-13, FLAG appended) (protein)
chain: PSHFQQSCLQALEPQAVSSYLSPGAPLKGRPPSPGFQRQRQRQRRAAGGILHLELLVAVGPDVFQAHQEDTERYVLTNLNIGAELLRDPSLGAQFRVHLVKMVILTEPEGAPNITANLTSSLLSVCGWSQTINPEDDTDPGHADLVLYITRFDLELPDGNRQVRGVTQLGGACSPTWSCLITEDTGFDLGVTIAHEIGHSFGLEHDGAPGSGCGPSGHVMASDGAAPRAGLAWSPCSRRQLLSLLSAGRARCVWDPPRPQPGSAGHPPDAQPGLYYSANEQCRVAFGPKAVACTFAREHLDMCQALSCHTDPLDQSSCSRLLVPLLDGTECGVEKWCSKGRCRSLVELTPIAAVHGRWSSWGPRSPCSRSCGGGVVTRRRQCNNPRPAFGGRACVGADLQAEMCNTQACEKTQLEFMSQQCARTDGQPLRSSPGGASFYHWGAAVPHSQGDALCRHMCRAIGESFIMKRGDSFLDGTRCMPSGPREDGTLSLCVSGSCRTFGCDGRMDSQQVWDRCQVCGGDNSTCSPRKGSFTAGRAREYVTFLTVTPNLTSVYIANHRPLFTHLAVRIGGRYVVAGKMSISPNTTYPSLLEDGRVEYRVALTEDRLPRLEEIRIWGPLQEDADIQVYRRYGEEYGNLTRPDITFTYFQPKPRQAWVWDYKDDDDK
B5: W1016stop (C-terminal deletion variant of ADAMTS-13, FLAG appended) (protein)
chain: PSHFQQSCLQALEPQAVSSYLSPGAPLKGRPPSPGFQRQRQRQRRAAGGILHLELLVAVGPDVFQAHQEDTERYVLTNLNIGAELLRDPSLGAQFRVHLVKMVILTEPEGAPNITANLTSSLLSVCGWSQTINPEDDTDPGHADLVLYITRFDLELPDGNRQVRGVTQLGGACSPTWSCLITEDTGFDLGVTIAHEIGHSFGLEHDGAPGSGCGPSGHVMASDGAAPRAGLAWSPCSRRQLLSLLSAGRARCVWDPPRPQPGSAGHPPDAQPGLYYSANEQCRVAFGPKAVACTFAREHLDMCQALSCHTDPLDQSSCSRLLVPLLDGTECGVEKWCSKGRCRSLVELTPIAAVHGRWSSWGPRSPCSRSCGGGVVTRRRQCNNPRPAFGGRACVGADLQAEMCNTQACEKTQLEFMSQQCARTDGQPLRSSPGGASFYHWGAAVPHSQGDALCRHMCRAIGESFIMKRGDSFLDGTRCMPSGPREDGTLSLCVSGSCRTFGCDGRMDSQQVWDRCQVCGGDNSTCSPRKGSFTAGRAREYVTFLTVTPNLTSVYIANHRPLFTHLAVRIGGRYVVAGKMSISPNTTYPSLLEDGRVEYRVALTEDRLPRLEEIRIWGPLQEDADIQVYRRYGEEYGNLTRPDITFTYFQPKPRQAWVWAAVRGPCSVSCGAGLRWVNYSCLDQARKELVETVQCQGSQQPPAWPEACVLEPCPPYWAVGDFGPCSASCGGGLRERPVRCVEAQGSLLKTLPPARCRAGAQQPAVALETCNPQPCPARWEVSEPSSCTSAGGAGLALENETCVPGADGLEAPVTEGPGSVDEKLPAPEPCVGMSCPPGWGHLDATSAGEKAPSPWGSIRTGAQAAHVWTPAAGSCSVSCGRGLMELRFLCMDSALRVPVQEELCGLASKPGSRREVCQAVPCPARWQYKLAACSVSCGRGVVRRILYCARAHGEDDGEEILLDTQCQGLPRPEPQEACSLEPCPPRWDYKDDDDK
B6: Q449stop (C-terminal deletion variant of ADAMTS-13, FLAG appended) (protein)
chain: PSHFQQSCLQALEPQAVSSYLSPGAPLKGRPPSPGFQRQRQRQRRAAGGILHLELLVAVGPDVFQAHQEDTERYVLTNLNIGAELLRDPSLGAQFRVHLVKMVILTEPEGAPNITANLTSSLLSVCGWSQTINPEDDTDPGHADLVLYITRFDLELPDGNRQVRGVTQLGGACSPTWSCLITEDTGFDLGVTIAHEIGHSFGLEHDGAPGSGCGPSGHVMASDGAAPRAGLAWSPCSRRQLLSLLSAGRARCVWDPPRPQPGSAGHPPDAQPGLYYSANEQCRVAFGPKAVACTFAREHLDMCQALSCHTDPLDQSSCSRLLVPLLDGTECGVEKWCSKGRCRSLVELTPIAAVHGRWSSWGPRSPCSRSCGGGVVTRRRQCNNPRPAFGGRACVGADLQAEMCNTQACEKTQLEFMSQQDYKDDDDK

Target: von Willebrand factor (vWF), prepared from plasma cryo fraction, P04275

Protein | vWF cleaving activity (SDS-PAGE) | vWF cleaving activity
B1 | vWF cleaving activity was clearly recognized from the full-length molecule to W688stop molecule | –
B2 | vWF cleaving activity was clearly recognized from the full-length molecule to W688stop molecule | –
B3 | – | It was also confirmed that the vWF cleaving activity exists in the obtained purified fraction
B4 | vWF cleaving activity was clearly recognized from the full-length molecule to W688stop molecule | –
B5 | vWF cleaving activity was clearly recognized from the full-length molecule to W688stop molecule | –
B6 | – | secretion into culture supernatant was observed but the enzyme activity was weak or not observed in a molecule consisting of amino acids up to the vicinity of the 449th

Reference: patent US20060251655A1
